Reference: article PMC2952836

Key:
human α-thrombin (human) [1] = target: human α-thrombin (human) (UniProt P00734)
human α-thrombin (human) [2] = target: human α-thrombin (human) (UniProt P00734); experiment: kinetics of thrombin inactivation

second-order rate constant of uncatalyzed thrombin inactivation (no GAG) (human α-thrombin (human) [1]) [M⁻¹ s⁻¹] | K (TH,HCII), dissociation constant of ternary complex formation with heparin (human α-thrombin (human) [2]) [µM] | K (TDS,HCII), dissociation constant of ternary complex formation with DS (human α-thrombin (human) [2]) [µM] | Substance
420 | 0.018 | – | deglycosylated plasma heparin cofactor II (from UniProt P05546 20-499) (natural protein)
– | – | 0.022 | native plasma heparin cofactor II (from UniProt P05546 20-499) (natural protein)
